Reference: US20210077621A1 (published 2021)

Molecular target: human MASP-2 (human, UniProt O00187 16-686)
Test: cell-based or functional assay

Chain of human MASP-2 (O00187 16-686): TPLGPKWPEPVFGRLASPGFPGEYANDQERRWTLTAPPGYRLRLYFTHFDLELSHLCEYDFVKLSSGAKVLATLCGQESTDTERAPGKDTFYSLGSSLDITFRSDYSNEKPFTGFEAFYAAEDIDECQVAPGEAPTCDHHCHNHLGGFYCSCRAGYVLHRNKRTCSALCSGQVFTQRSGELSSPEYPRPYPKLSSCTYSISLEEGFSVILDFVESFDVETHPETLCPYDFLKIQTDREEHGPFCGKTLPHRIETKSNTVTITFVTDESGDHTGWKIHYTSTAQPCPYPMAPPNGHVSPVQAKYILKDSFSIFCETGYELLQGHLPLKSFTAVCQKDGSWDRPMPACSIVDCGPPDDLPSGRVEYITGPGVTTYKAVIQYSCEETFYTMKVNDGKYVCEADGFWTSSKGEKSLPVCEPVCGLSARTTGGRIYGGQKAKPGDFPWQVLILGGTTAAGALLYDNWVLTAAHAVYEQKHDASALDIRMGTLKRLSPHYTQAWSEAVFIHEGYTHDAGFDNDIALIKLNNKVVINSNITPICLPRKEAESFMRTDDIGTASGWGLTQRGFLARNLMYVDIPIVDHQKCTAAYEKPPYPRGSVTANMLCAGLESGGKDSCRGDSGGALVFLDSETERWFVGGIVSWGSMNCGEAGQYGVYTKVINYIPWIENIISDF

1% human serum C3 assay (IC50 nM): 26 nM | 90% human serum C3 assay (IC50 nM): > 1000 nM | 90% human serum C4 assay (IC50 nM): 140 nM
B1: 17D20m_d3521N11 (scFv, V domains shown)
VH: QVTLKESGPVLVKPTETLTLTCTVSGFSLSRGKMGVSWIRQPPGKALEWLAHIFSSDEKSYRTSLKSRLTISKDTSKNQVVLTMTNMDPVDTATYYCARIRRGGIDYWGQGTLVTVSS
VL: SYELIQPPSVSVAPGQTATITCAGDNLGKKRVHWYQQRPGQAPVLVIYDDSDRPSGIPDRFSASNSGNTATLTITRGEAGDEADYYCQVWDIATDHVVFGGGTKLTVL
